Source: patent US20140274797

System: specific peptide sequence that is a substrate for MMP-9 (Lys-Gly-Pro-Arg-Ser-Leu-Ser-Gly-Lys)

metalloproteinase-9 (MMP-9)
cleavage of the donor/acceptor-labelled peptide (loss of FRET, colour change): Addition of MMP-9 cleaves the peptide separating donor and acceptor
